T1: canine IL-31 (Canis lupus familiaris, UniProt A0A8I3S3D1)
T1 construct: made in house; host or cells: CHO cells (CHROMOS ACE system)
T1 sequence (A0A8I3S3D1 24-159): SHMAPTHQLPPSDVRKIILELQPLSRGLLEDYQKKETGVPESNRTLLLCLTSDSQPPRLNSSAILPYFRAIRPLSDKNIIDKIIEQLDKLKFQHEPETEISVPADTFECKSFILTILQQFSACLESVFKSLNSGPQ

B1: ZIL11: fully canine anti IL-31 antibody, VH SEQ ID NO: 87, VL SEQ ID NO: 89 (antibody, listed as Canis familiaris, V domains shown)
VH: EVQLVESGGDLVKPAGSLRLSCVASGFTFRTYVMNWVRQAPGKGLQWVASINGGGSSPTYADAVRGRFTVSRDNAQNSLFLQMNSLRAEDTAVYFCVVSMVGPFDYWGQGTLVTVSS
VL: SSVLTQPPSVSVSLGQTATISCSGESLSNYYAQWFQQKAGQAPVLVIYKDTERPSGIPDRFSGSSSGNTHTLTISGARAEDEADYYCESAVSSDTIVFGGGT
B2: ZTS-927: felinized anti IL-31 15H05 mAb, FEL_15H05_VH1 with Feline_HC_AlleleA_wt, FEL-15H05-VL1_FW2 light chain (antibody, V domains shown)
VH: QVLLVQSGAEVRTPGASVKIFCKASGYSFTSYTIHWLRQAPAQGLEWMGNINPTSGYTENNQRFKDRLTLTADTSTNTAYMELSSLRSADTAMYYCARWGFKYDGEWSFDVWGAGTTVTVSS
VL: EIQMTQSPSSLSASPGDRVTITCRASQGISIWLSWYQQKPGNIPKVLINKASNLHIGVPSRFSGSGSGTDFTLTISSLEPEDAATYYCLQSQTYPLTFGGGTKLEIK
modifications: feline constant regions joined; Felinized variable heavy mAb sequence, from Mus musculus and Felis catus; Felinized variable light mAb sequence, from Mus musculus and Felis catus
B3: ZIL154: fully canine anti IL-31 antibody, VH SEQ ID NO: 99, VL SEQ ID NO: 101 (antibody, listed as Canis familiaris, V domains shown)
VH: EVHLVESGGDLVKPWGSLRLSCVASGFTFSDRGMSWVRQSPGKGLQWVAYIRYDGSRTDYADAVEGRFTISRDNAKNTLYLQMNSLRAEDTAVYYCARWDGSSFDYWGQGTLVTVSS
VL: DIVVTQTPLSLSVSPGETASFSCKASQSLLHSDGNTYLDWFRQKPGQSPQRLIYKVSNRDPGVPDRFSGSGSGTDFTLRISGVEADDAGLYYCMQAIHFPLTFGAGTKVELK
B4: 15H05 mouse: canine chimera: mouse 15H05 variable regions on canine IgG constant regions (antibody)
heavy: QVQLQQSAAELARPGASVKMSCKTSGYTFTSYTIHWIKQRPGQGLEWIGNINPTSGYTENNQRFKDKTTLTVDRSSNTAYLQLHSLTSEDSAVYFCARWGFKYDGEWSFDVWGAGTTVTVSSASTTAPSVFPLAPSCGSTSGSTVALACLVSGYFPEPVTVSWNSGSLTSGVHTFPSVLQSSGLYSLSSMVTVPSSRWPSETFTCNVAHPASKTKVDKPVPKRENGRVPRPPDCPKCPAPEMLGGPSVFIFPPKPKDTLLIARTPEVTCVVVDLDPEDPEVQISWFVDGKQMQTAKTQPREEQFNGTYRVVSVLPIGHQDWLKGKQFTCKVNNKALPSPIERTISKARGQAHQPSVYVLPPSREELSKNTVSLTCLIKDFFPPDIDVEWQSNGQQEPESKYRTTPPQLDEDGSYFLYSKLSVDKSRWQRGDTFICAVMHEALHNHYTQESLSHSPGK
light: DIQMNQSPSSLSASLGDTITVTCRASQGISIWLSWYQQKPGNIPKVLINKASNLHIGVPPRFSGSGSGTHFTLTITSLQPEDIATYYCLQSQTYPLTFGGGTKLEINRNDAQPAVYLFQPSPDQLHTGSASVVCLLNSFYPKDINVKWKVDGVIQDTGIQESVTEQDKDSTYSLSSTLTMSSTEYLSHELYSCEITHKSLPSTLIKSFQRSEC
B5: Feline 11E12 1.2: felinized 11E12, FEL_11E12_VH1 paired with FEL_11E12_VL2 (antibody, V domains shown)
VH: QVLLVQSGAEVKKPGASVKIFCKASGYSFTYYDINWLRQAPEQGLEWMGWIFPGDGGTKYNETFKGRLTLTADTSTNTVYMELSSLRSADTAMYYCARGGTSVIRDAMDYWGQGALVTVSS
VL: EVVLTQSSAFLSRTLKEKATITCRASESVDNYGISFMHWYQQKPNQAPKLLVKRASNLESGAPSRFSGSGSGTDFTLTISSPEPEDAATYYCQQSNKDPLTFGQGT
B6: Feline 11E12 1.1 FW2: Fel_11E12_VH1 paired with Feline 11E12 VL1 carrying mouse FW2 (antibody, V domains shown)
VH: QVLLVQSGAEVKKPGASVKIFCKASGYSFTYYDINWLRQAPEQGLEWMGWIFPGDGGTKYNETFKGRLTLTADTSTNTVYMELSSLRSADTAMYYCARGGTSVIRDAMDYWGQGALVTVSS
VL: EIQMTQSPSSLSASPGDRVTITCRASESVDNYGISFMHWYQQKPGQPPKLLIYRASNLESGVPSRFSGSGSGTDFTLTISSLEPEDAATYYCQQSNKDPLTFGQGT

What was measured:
wildtype feline IL-31 = assay: Indirect ELISA, binding to wildtype feline IL-31
Chain of wildtype feline IL-31 (as listed by the source): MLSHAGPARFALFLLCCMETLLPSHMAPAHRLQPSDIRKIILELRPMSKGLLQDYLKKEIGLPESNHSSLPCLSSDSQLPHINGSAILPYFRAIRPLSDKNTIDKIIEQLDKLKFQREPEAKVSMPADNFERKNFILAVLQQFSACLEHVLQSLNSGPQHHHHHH
Experimental: (§1) Mice and dogs were immunized with recombinant canine IL-31 (SEQ ID No. 155) for the purpose of identifying antibodies. Serum antibody titers from immunized animals were determined using an enzyme linked immunosorbent assay (ELISA). Canine or feline IL-31 (50 ng/well) was immobilized to polystyrene microplates and used as a capture antigen. Serum from immunized animals was diluted in phosphate buffered saline with 0.05% tween-20 (PBST). The presence of anti-IL-31 antibodies was detected with an appropriate secondary HRP labeled antibody. Following addition of a chromogenic substrate (SureBlue Reserve TMB 1-Component Microwell Peroxidase Substrate, KPL, Inc., Gaithersburg, Md.) and a ten minute incubation at room temperature (RT) the reaction was stopped with the addition of […] of 0.1 N HCl. The absorbance of each well was determined at an optical density (OD) of 450 nm. Antibodies were selected for their ability to bind canine and feline IL-31 using an ELISA. In some cases, further characterization was performed at the time of selection using an ELISA with a mutant form of the feline IL-31 protein as a capture antigen. Cells producing antibodies with desired binding and inhibitory properties were chosen for sequence analysis of RNA transcripts representing the variable heavy (VH) and variable light (VL) IgG chains.
(§2) For the indirect ELISA method, antibody binding to wildtype and feline IL-31 15H05 mutant proteins was assessed. […] In comparison, the 11E12 antibody bound to the wild-type feline IL-31 and its binding was not impacted by the mutations in the 15H05 epitope region as evidenced by the data in FIG. 4. To confirm binding, biacore analysis was performed using canine, feline, equine, human, feline 15H05 mutant, and feline 11E12 mutant IL-31 proteins as surfaces and a single test concentration of antibody. Similar to ELISA observations, all antibodies tested bound to wildtype feline IL-31. In agreement with the data described above in this section, mouse antibodies 11 E12 and 15H05 both bound to canine and feline IL-31 surfaces. […] From this group of nine fully canine antibodies, only ZIL1 and ZIL9 cross-reacted with equine IL-31. Of note, antibody 15H05 was the only one of all assayed herein that bound to canine, feline, and equine IL-31 indicating some level of epitope conservation across the three species. In contrast, none of the antibodies described herein bound to human IL-31. Additional biacore surfaces were used to verify ELISA observations showing differential binding of antibodies to wildtype feline IL-31 and two proteins with mutations in the 15H05 (15H05 mutant) or 11 E12 (11E12 mutant) epitopes. […] Differing results can be attributed to differences in the two assay methodologies.
(§3) To determine the impact of mAbs 11E12 and 15H05 ability to bind these mutant forms of feline IL-31, an indirect ELISA was run using the mutants directly coated on to an immunoassay plate. […] The minor attenuation of mAb 15H05s binding to the 11E12 mutant is likely due to translational effects of the mutations from movement of the two front helices effecting the 15H05 binding site. The mutations designed to affect mAb 15H05s binding (mutant 15H05) show a complete loss of mAb 1505s ability to bind this IL-31 mutant by ELISA. Unlike the 11E12 mutant, the changes in the random coil recognized by mAb 15H05 (mutant 15H05) had no impact on mAb 11E12 binding further supporting the distinction between the two epitopes (FIG. 6C).

[1] = system: feline IL-31 15H05 mutant; assay: Indirect ELISA, binding to feline IL-31 15H05 mutant; conditions: compared with wildtype
Chain of feline IL-31 15H05 mutant (as listed by the source, change not shown): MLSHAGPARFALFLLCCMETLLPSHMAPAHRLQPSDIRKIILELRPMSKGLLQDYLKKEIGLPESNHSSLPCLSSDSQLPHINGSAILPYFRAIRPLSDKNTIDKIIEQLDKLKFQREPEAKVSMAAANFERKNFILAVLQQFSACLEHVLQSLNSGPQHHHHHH
Experimental: as §1, §2, §3

canine IL-31 [2] = biological target: T1, canine IL-31; assay: Inhibition of canine IL-31 induced pSTAT3 signaling in canine DH-82 and feline FCWF4 cells; type: cell-based; conditions: canine IL-31; canine and feline cell types, cell type of the values not specified
Experimental: (§4) To identify candidates with inhibitory activity, antibodies were assessed for their ability to affect IL-31-mediated STAT3 phosphorylation in either a canine or feline cell-based assay. STAT3 phosphorylation was determined in canine DH-82 (ATCC® CRL-10389™) or feline FCWF4 macrophage-like cells (ATCC CRL-2787). DH82 and FCWF4 cells were primed with canine interferon gamma (R&D Systems, Minneapolis, Minn.) at 10 ng/mL for 24 hours or feline interferon gamma (R&D Systems, Minneapolis, Minn.) at 125 ng/mL for 96 hours, respectively, to increase receptor expression. Both cell types were serum starved for 2 hours prior to IL-31 and mAb treatment. Using two independent methods, all candidate mAbs were evaluated for their ability to inhibit either 1 μg/mL canine or 0.2 μg/mL feline IL-31 induced STAT3 phosphorylation. […] To ensure complex formation, a one hour co-incubation of mAb and IL-31 cytokine prior to cell stimulation was completed. IL-31 cell stimulation was carried out for five minutes. STAT3 phosphorylation was measured using AlphaLISA SureFire ULTRA™ technology (Perkin Elmer, Waltham, Mass.). In the case where antibody concentration and purity are unknown, hybridoma supernatants were qualitatively measured for their ability to inhibit STAT3 phosphorylation following a 1 hour co-incubation with […] IL-31. The potency of individual monoclonal antibodies defined by their ability to inhibit IL-31 mediated STAT3 phosphorylation in these assays was considered the key selection criteria for further advancement of select antibodies. The term potency refers to the IC50 value calculated from these assays and is the concentration of the antibody where signaling induced by IL-31 is reduced to one half its maximal value.

feline IL-31 [3] = assay: Inhibition of feline IL-31 induced pSTAT3 signaling in feline FCWF4 macrophage-like cells; type: cell-based; conditions: 0.2 μg/mL feline IL-31, pSTAT3, FCWF4 cells (FIG. 3)
Experimental: as §4

feline IL-31 [4] = assay: Affinity of anti-IL-31 antibodies by surface plasmon resonance (Biacore), feline IL-31 surface; type: binding; conditions: IL-31 conjugated to the surface (FIG. 2)
Experimental: (§5) The affinity with which candidate mAbs bind canine and feline IL-31 was determined using surface plasmon resonance (SPR) on a Biacore system (Biocore Life Sciences (GE Healthcare), Uppsala, Sweden). To avoid affinity differences associated with differential surface preparation that can occur when immobilizing antibodies to surfaces; a strategy was employed where IL-31 was directly conjugated to the surface. Immobilization was obtained by amine coupling 5 μg/mL IL-31 using N-hydroxysuccinimide (NHS)/1-Ethyl-3-(3-dimethylaminopropyl) carbodiimide (EDC) chemistry. Chips were quenched with ethanolamine and the affinity with which all candidate mAbs bound to the immobilized IL-31 was evaluated. All curves were fit to a 1:1 model. Affinity constants (KD) less than 1×10^−11M (1E-11 M) are below the lower limit of quantitation of detection for the instrument. Results for affinity measurements are described herein.
Target sequence in this assay (as listed by the source): as the sequence (as listed by the source, change not shown) above, with A126P, A128D counted along it

feline IL-31 [5] = assay: Inhibition of feline IL-31 induced pSTAT3 signaling in canine DH-82 cells; type: cell-based; conditions: feline IL-31, pSTAT3, canine DH82 cells (FIG. 3)
Experimental: as §4
Target sequence in this assay (as listed by the source): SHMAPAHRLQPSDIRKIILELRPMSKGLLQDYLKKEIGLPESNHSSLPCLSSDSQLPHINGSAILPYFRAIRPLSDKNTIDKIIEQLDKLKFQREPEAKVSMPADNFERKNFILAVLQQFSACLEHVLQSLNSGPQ

canine IL-31 [6] = assay: Affinity of anti-IL-31 antibodies by surface plasmon resonance (Biacore), canine IL-31 surface; type: binding; conditions: IL-31 conjugated to the surface (FIG. 2)
Experimental: as §5

Row | Molecule | binding to wildtype feline IL-31 (ELISA) (wildtype feline IL-31) | binding to feline IL-31 15H05 mutant (ELISA) [1] | IC50 against canine IL-31 (canine IL-31 [2]) | potency (IC50) against feline IL-31 in feline FCWF4 cells (feline IL-31 [3]) | affinity (KD) to feline IL-31 (feline IL-31 [4]) | potency (IC50) against feline IL-31 in canine DH82 cells (feline IL-31 [5]) | affinity (KD) to canine IL-31 (canine IL-31 [6])
1 | B1 | capable of binding | binding was impacted | – | – | – | – | –
2 | B2 | – | – | proportionally higher | highly consistent with values derived from the chimeric and mouse form | highly consistent with that of the mouse and chimeric form | highly consistent with values derived from the chimeric and mouse form | –
3 | B3 | capable of binding | binding was impacted | – | – | – | – | –
4 | B4 | – | – | 12.49 µg/mL | – | – | 0.71 µg/mL | –
5 | B5 | – | – | – | complete loss of cellular potency | total loss of binding | complete loss of cellular potency | total loss of binding
6 | B6 | – | – | – | – | KD equivalent to that of the mouse and chimeric form | increased potency | detrimental effect

From patent US11433139B2, “Peptide vaccines against interleukin-31” (Zoetis Services LLC, priority 2018, dated 2022)
